Measurements from article PMC5321526.

Target: MVV IN construct spanning the C-terminal domain (CTD), as crystallised (maedi-visna virus (MVV))
Assay: crystal structure

With “MVV IN construct spanning the C-terminal domain (CTD), as crystallised (domain or fragment)” the stoichiometry N was 2.
